Measurements: patent US20230416362A1 (published 2023)

How the values were obtained:
Experiment in all cases: ELISA
cyno TIGIT IgV domain = target: cyno TIGIT IgV domain
[1] = target: T1, recombinant mouse TIGIT IgV domain (UniProt P86176 29-145)
T1 chain: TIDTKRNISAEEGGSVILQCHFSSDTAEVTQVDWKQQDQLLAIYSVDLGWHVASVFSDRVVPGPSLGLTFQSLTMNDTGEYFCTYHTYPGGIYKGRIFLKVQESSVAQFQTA

[2] = target: T2, recombinant human TIGIT IgV domain (UniProt Q495A1 22-141)
T2 chain: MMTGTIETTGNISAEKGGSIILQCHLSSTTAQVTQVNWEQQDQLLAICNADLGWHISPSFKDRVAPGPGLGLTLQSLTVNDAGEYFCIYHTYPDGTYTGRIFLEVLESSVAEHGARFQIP

Chain of cyno TIGIT IgV domain (Q495A1 other isoform, or with tags, fused parts or gaps): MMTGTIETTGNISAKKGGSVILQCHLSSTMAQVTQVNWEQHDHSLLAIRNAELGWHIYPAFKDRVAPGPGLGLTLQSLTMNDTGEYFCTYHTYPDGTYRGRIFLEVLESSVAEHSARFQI

B1: 2C9 (antibody, V domains shown)
VH: DIQLKQSGAELVRPGASVKLSCKASGYTFTDSYINWVKQRPGQGLEWIARFYPGSGNTYYNEKFKGKATLTAEKSSSTAYMQLSSLTSEDSAVYFCAREAWLLFYGMDYWGQGTTVTVSS
VL: DIVLTQSPAIMSASPGEKVTISCSANSSVSYMYWYQQKPGSSPKPWIYRTSNLASGVPARFSGSGSGTSYSLTISSMEAEDAATYYCQQYHSYPLTFGAGTKLELK
Question: How did the EC50 (cyno TIGIT IgV domain) turn out when B1 was run?
Answer: 69.9 nM

Question: And the EC50 [1]?
Answer: 138 nM

Question: And the EC50 [2]?
Answer: 0.23 nM

B2: 7D4 (antibody, V domains shown)
VH: QVQLKHSGAELVRPGTSVKMSCKASGYTFTNYWIGWAKQRPGHGLEWIGDIYPGSSFTNSNEKFKGKATLTADKSSSTAYMQFSSLTSEDSAIYYCAKLGRGYWYFDVWGTGTSVTVSA
VL: DIVLTQSPAIMSASLGEEITLTCSASSSVSYIHWYQQKSGTSPKLLIYTTSNLASGVPSRFSGSGSGTFYSLTISSVEAEDAADYYCHQWSRYPTFGGGTKLEIK
Question: Which EC50 (cyno TIGIT IgV domain) does the source give for B2 here?
Answer: 21.3 nM

Question: And the EC50 [2]?
Answer: 0.13 nM

B3: 3A9 (antibody, V domains shown)
VH: QVQLQQPGAELVRPGSSVKLSCKASGYTFTSYWMHWVKQRPIQGLEWIGNIDPSDSATHYNQKFKDKATLTVDKSSSTAYMHLSSLTSEDSAVYYCARTGIDYGSSYFDYWGQGTILTVSS
VL: DIVLTQSPASLAVSLGQRATISCRASQSVSTSSYSYIHWYQQKPGQPPKLLIKYASNLESGVPARFSGSGSGTDFTLNIHPVEEEDTATYYCQHNWEIPRTFGGGTKLEIK
Question: B3 was tested. Which EC50 (cyno TIGIT IgV domain) did it give?
Answer: 4.46 nM

Question: What about the EC50 [1] of the same binder?
Answer: 172 nM

Question: What about the EC50 [2] of the same binder?
Answer: 0.38 nM
